{"source": "paper PMC4505599", "molecular_target": "Mos1 transposase (T216A mutant) (Drosophila mauritiana)", "assay": "crystal structure; Mos1 IRL paired-end complex: full-length transposase mixed with duplex IRL DNA at 1:1.5 protein:DNA in 25 mM Tris pH 7.5, 250 mM KCl, 1 mM DTT; crystals grown at 17 °C; 3.1 Å"}
{"substance": "Mos1 transposase (T216A mutant) (enzyme)", "values": [{"measurement": "stoichiometry N", "result": 2}]}
